± gives the standard deviation of the averaged measurements.
tested on: ATP; assay: switch fluorescence ratio, 500 uM ATP over buffer (Cy3 cluster intensity, sum of 5 cycles each) (fold (ratio)); higher = stronger signal-on switching upon ATP binding; sequences stand for … in TCGTCGGCAGCGTCAGATGTGTATAAGAGACAGTTTTTTTTTTTTTTTTTTTTTTTTT…TC; details: aptamer strand: ATP DNA aptamer (quencher-CACCTGGGGGAGTATTGCGGAGGAAGG + anchor), 100 nM annealed; ATP concentration: 500 uM
How it was run: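 Clusters carrying Cy3-labelled switching strands on a modified Illumina MiSeq flow-cell were annealed to 100 nM quencher-labelled ATP aptamer and imaged in selection buffer. They were imaged again after 15 min with 500 uM ATP at 22 °C, over five buffer/ATP cycles with NaOH stripping and re-annealing in between. For each cluster, the fluorescence ratio is the summed Cy3 intensity of the target cycles divided by that of the buffer cycles, averaged per switch-domain sequence. Clusters outside 100-1000 RFU were left out.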
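Note: ATP exposure 15 min at 22 °C before imaging.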

Sequence | switch fluorescence ratio
TTAAATTTCT | 1.02 ± 0.0034
TTAAATTTTA | 1.01 ± 0.019
TTAACAATCG | 1.02 ± 0.02
TTAACATATA | 1.017 ± 0.0088
TTAACCAGTC | 1.04 ± 0.022
TTAAGAAAAG | 1.1 ± 0.065
TTAAGAAGCG | 1.01 ± 0.06
TTAAGAGACA | 1.03 ± 0.033
TTAAGAGATA | 0.989 ± 0.018
TTAAGAGGG | 0.987 ± 0.014
TTAAGAGGGG | 0.975 ± 0.042
TTAAGAGGGT | 0.997 ± 0.015
TTAAGATAGG | 1.01 ± 0.025
TTAAGATGTA | 1.01 ± 0.039
TTAAGATGTT | 0.993 ± 0.016
TTAAGCAACA | 1.13 ± 0.018
TTAAGCGGCC | 1.067 ± 0.0072
TTAAGCTGAA | 0.961 ± 0.044
TTAAGGACTT | 1.01 ± 0.011
TTAAGGATAC | 1.15 ± 0.21
TTAAGGCACG | 0.999 ± 0.017
TTAAGGCATG | 0.997 ± 0.018
TTAAGGGAAG | 1.02 ± 0.036
TTAAGGGCAT | 1 ± 0.015
TTAAGGGCGC | 1 ± 0.084
TTAAGGGGTA | 1 ± 0.019

Sequence | switch fluorescence ratio
TTAAGGTAAA | 1.01 ± 0.049
TTAAGGTCGT | 0.995 ± 0.034
TTAAGTACGC | 1.29 ± 0.014
TTAAGTCTTC | 0.964 ± 0.039
TTAAGTGGCT | 1.016 ± 0.0095
TTAAGTGGGT | 0.979 ± 0.061
TTAAGTGGTT | 0.998 ± 0.011
TTAAGTTCAT | 0.9806 ± 0.0067
TTAAGTTGCA | 1.05 ± 0.028
TTAATAAAAT | 0.966 ± 0.018
TTAATATGTA | 0.9897 ± 0.0074
TTAATATTAT | 0.978 ± 0.013
TTAATCAATG | 0.998 ± 0.029
TTAATCATAG | 1 ± 0.066
TTAATCGTTA | 1.01 ± 0.011
TTAATGACTT | 1.02 ± 0.058
TTAATGATGG | 1.012 ± 0.0075
TTAATGCAAC | 1.01 ± 0.021
TTAATGGCTA | 0.976 ± 0.021
TTAATGGGA | 0.995 ± 0.011
TTAATGGGAT | 0.987 ± 0.021
TTAATGTGAT | 1 ± 0.012
TTAATTAAAC | 1.013 ± 0.0035
TTAATTAACG | 0.995 ± 0.023
TTAATTCGTC | 0.949 ± 0.021
TTAATTGGCC | 0.992 ± 0.055

Sequence | switch fluorescence ratio
TTAATTGGGA | 0.9897 ± 0.0028
TTAATTGGGC | 1.03 ± 0.069
TTAATTTCGG | 0.991 ± 0.065
TTAATTTGAG | 0.986 ± 0.03
TTAATTTTTG | 0.996 ± 0.029
TTACAAGACG | 1.032 ± 0.0049
TTACAAGGGA | 1.09 ± 0.18
TTACAATATT | 1.07 ± 0.03
TTACAATTTG | 1.01 ± 0.039
TTACACGATA | 1.32 ± 0.15
TTACAGCTGA | 1.01 ± 0.016
TTACAGGCCT | 1.05 ± 0.056
TTACAGGGGC | 1.11 ± 0.061
TTACATAGGG | 1.019 ± 0.0079
TTACATAGTA | 1.06 ± 0.071
TTACATATGG | 1.024 ± 0.0032
TTACATTTTG | 1.01 ± 0.026
TTACCAGCTT | 1.02 ± 0.063
TTACCAGTTG | 1.04 ± 0.031
TTACCCATGG | 0.937 ± 0.064
TTACCCCGAA | 1.026 ± 0.0067
TTACCGGATA | 1.035 ± 0.0092
TTACCGGGAG | 1.05 ± 0.013
TTACCGGTAG | 0.993 ± 0.059
TTACCGTACG | 1.45 ± 0.11
TTACCGTGCC | 1.27 ± 0.059

Sequence | switch fluorescence ratio
TTACCTCATT | 1.02 ± 0.015
TTACCTGGGG | 1.03 ± 0.038
TTACCTTTTT | 1.02 ± 0.013
TTACGAAGGG | 1.012 ± 0.0045
TTACGACCGG | 1.01 ± 0.032
TTACGGAGGC | 1.0641 ± 5.8e-05
TTACGGAT | 1.06 ± 0.019
TTACGGATGT | 1.02 ± 0.012
TTACGGCAGG | 1.13 ± 0.092
TTACGGCCAA | 1.26 ± 0.31
TTACGGCCGA | 1.02 ± 0.026
TTACGGGGAG | 1 ± 0.034
TTACGGGTAG | 1.02 ± 0.0088
TTACGGTGCC | 0.987 ± 0.03
TTACGGTTGC | 0.9665 ± 0.0024
TTACGTTTC | 1 ± 0.034
TTACGTTTTG | 1.13 ± 0.29
TTACTATTCT | 1.001 ± 0.0063
TTACTATTTT | 1.03 ± 0.023
TTACTCCTTT | 1 ± 0.017
TTACTCGACG | 1.06 ± 0.022
TTACTCGTCA | 0.989 ± 0.011
TTACTCGTCT | 1.08 ± 0.056
TTACTCTATA | 1.06 ± 0.016
TTACTGGCT | 1 ± 0.059
TTACTGGGGT | 1.02 ± 0.021

Sequence | switch fluorescence ratio
TTACTTCTTT | 0.976 ± 0.027
TTACTTGAGG | 1.11 ± 0.13
TTACTTGGCC | 0.9818 ± 0.0021
TTAGAAACGC | 1.02 ± 0.04
TTAGAAAGGG | 0.977 ± 0.029
TTAGAATACG | 1 ± 0.045
TTAGACATTA | 1.02 ± 0.018
TTAGACGCGG | 0.98 ± 0.036
TTAGACGGGG | 1 ± 0.034
TTAGAGACGT | 1.03 ± 0.027
TTAGAGACTG | 1.08 ± 0.11
TTAGAGAGGC | 0.961 ± 0.054
TTAGAGAGGT | 0.988 ± 0.03
TTAGAGCTTT | 0.975 ± 0.021
TTAGAGGAAC | 0.965 ± 0.028
TTAGAGGCAT | 1.05 ± 0.066
TTAGAGGCGT | 1.006 ± 0.0053
TTAGATACCA | 1.03 ± 0.039
TTAGATGCGG | 1.013 ± 0.01
TTAGCAACGA | 1.09 ± 0.039
TTAGCATGTT | 1 ± 0.022
TTAGCATTAG | 1.23 ± 0.04
TTAGCCGGGT | 0.9802 ± 0.0028
TTAGCCGTTG | 1.03 ± 0.015
TTAGCGAGGT | 1.02 ± 0.032
TTAGCGGGGG | 1.03 ± 0.06

Sequence | switch fluorescence ratio
TTAGCTCTA | 1.012 ± 0.0054
TTAGGAAATT | 1.04 ± 0.032
TTAGGAAGGT | 1 ± 0.021
TTAGGACGGC | 0.876 ± 0.02
TTAGGACTTG | 0.985 ± 0.015
TTAGGAGAAT | 0.999 ± 0.015
TTAGGCCCTG | 0.992 ± 0.041
TTAGGCGCAT | 1.03 ± 0.025
TTAGGCTTT | 0.9374 ± 0.0049
TTAGGGAA | 1.01 ± 0.023
TTAGGGAAGT | 0.991 ± 0.031
TTAGGGAGTT | 0.9784 ± 0.0062
TTAGGGATAT | 1.22 ± 0.42
TTAGGGCCAA | 1 ± 0.0078
TTAGGGCCGC | 0.966 ± 0.014
TTAGGGCTAG | 0.9932 ± 0.0081
TTAGGGCTGC | 0.98664 ± 0.00045
TTAGGGGAAG | 1.01 ± 0.022
TTAGGGGTGG | 0.996 ± 0.032
TTAGGGTCAG | 0.997 ± 0.035
TTAGGGTCGC | 0.993 ± 0.035
TTAGGGTG | 0.992 ± 0.03
TTAGGGTTTC | 0.978 ± 0.013
TTAGGTAGCA | 1.007 ± 0.0024
TTAGGTATCT | 1.01 ± 0.0095
TTAGGTTTGT | 1 ± 0.031

Sequence | switch fluorescence ratio
TTAGGTTTTG | 1.02 ± 0.061
TTAGTAAGTT | 1.11 ± 0.12
TTAGTACCCA | 1.03 ± 0.0032
TTAGTACCCT | 1.06 ± 0.043
TTAGTAGGAG | 0.992 ± 0.034
TTAGTAGGTG | 0.98 ± 0.024
TTAGTAGTGG | 0.974 ± 0.01
TTAGTATGTT | 1 ± 0.035
TTAGTCGACC | 0.9919 ± 0.0016
TTAGTGATTA | 0.996 ± 0.014
TTAGTGCTCC | 1.039 ± 0.0018
TTAGTGGCGA | 1.19 ± 0.31
TTAGTGTTTT | 0.98 ± 0.05
TTAGTTACGG | 0.999 ± 0.019
TTAGTTATAG | 1 ± 0.025
TTAGTTATGT | 0.992 ± 0.0093
TTAGTTGAGT | 1.02 ± 0.028
TTAGTTGTAA | 1.012 ± 0.0049
TTAGTTGTTT | 0.964 ± 0.023
TTAGTTTGTT | 0.981 ± 0.014
TTAGTTTTGT | 0.999 ± 0.027
TTATAAAAAA | 1.07 ± 0.079
TTATAAAAGG | 1.031 ± 0.0021
TTATAAAGCG | 1.054 ± 0.0028
TTATAAAGGA | 1.05 ± 0.046
TTATAAATTG | 0.991 ± 0.03

Sequence | switch fluorescence ratio
TTATAAG | 1.003 ± 0.0067
TTATAATCGT | 0.988 ± 0.014
TTATAATCTG | 0.986 ± 0.064
TTATAATGGT | 1.02 ± 0.062
TTATACAAGT | 0.9574 ± 0.0065
TTATACATCT | 1.038 ± 0.0068
TTATACATTG | 1.02 ± 0.041
TTATACGATG | 1.01 ± 0.025
TTATACGCGG | 0.991 ± 0.026
TTATACGTAG | 1.03 ± 0.019
TTATACGTCG | 1.01 ± 0.023
TTATAGAGG | 1.02 ± 0.0041
TTATAGGGG | 1 ± 0.039
TTATAGGTCT | 1 ± 0.072
TTATATCGGG | 0.995 ± 0.016
TTATATTGGG | 1 ± 0.033
TTATATTGGT | 0.974 ± 0.028
TTATATTTCT | 1.01 ± 0.036
TTATCAATGG | 1.01 ± 0.078
